Experimental data as given in article PMC8166883 (Cellular and Molecular Immunology, 2020).

Tests used:
[1] = target: T1, FLAG-tagged human vascular endothelial growth factor-A (FLAG-hVEGF-A) (Homo sapiens, UniProt P15692-4); experiment: SPR; Biacore T200; mAb held by anti-hIgG capture antibodies amine-coupled to a CM5 chip; purified antigen serially diluted in HBS-EP+ (100, 33.3, 11.1, 3.7, 1.23, 0.412 nM) injected 240 s at 30 µL/min, 300 s dissociation; 1:1 Langmuir binding model with mass transfer; KD calculated as kd/ka; details: both partners purified
T1 construct: human vascular endothelial growth factor-A; The cell-based assays used bought recombinant hVEGF165 (Pepro Tech), not this construct

[2] = target: T2, histidine-tagged human semaphorin 3A fused with alkaline phosphatase (hSema3A-his-AP) (Homo sapiens, UniProt Q14563); experiment: ELISA; antigen immobilised on MaxiSorp 384-well plates (62.5 ng/well), blocked with 1% BSA in PBS; DT40 culture supernatants 1 h at room temperature; detected by anti-hIgG-Fc HRP; details: one partner purified
T2 construct: human semaphorin 3A; The expressing cells were a gift from Dr. Yoshio Goshima; the construct is not described further; source: HEK293 cells, stably expressed, purified (HisTrap Excel column, gel filtration)
T2 sequence (Q14563 21-771): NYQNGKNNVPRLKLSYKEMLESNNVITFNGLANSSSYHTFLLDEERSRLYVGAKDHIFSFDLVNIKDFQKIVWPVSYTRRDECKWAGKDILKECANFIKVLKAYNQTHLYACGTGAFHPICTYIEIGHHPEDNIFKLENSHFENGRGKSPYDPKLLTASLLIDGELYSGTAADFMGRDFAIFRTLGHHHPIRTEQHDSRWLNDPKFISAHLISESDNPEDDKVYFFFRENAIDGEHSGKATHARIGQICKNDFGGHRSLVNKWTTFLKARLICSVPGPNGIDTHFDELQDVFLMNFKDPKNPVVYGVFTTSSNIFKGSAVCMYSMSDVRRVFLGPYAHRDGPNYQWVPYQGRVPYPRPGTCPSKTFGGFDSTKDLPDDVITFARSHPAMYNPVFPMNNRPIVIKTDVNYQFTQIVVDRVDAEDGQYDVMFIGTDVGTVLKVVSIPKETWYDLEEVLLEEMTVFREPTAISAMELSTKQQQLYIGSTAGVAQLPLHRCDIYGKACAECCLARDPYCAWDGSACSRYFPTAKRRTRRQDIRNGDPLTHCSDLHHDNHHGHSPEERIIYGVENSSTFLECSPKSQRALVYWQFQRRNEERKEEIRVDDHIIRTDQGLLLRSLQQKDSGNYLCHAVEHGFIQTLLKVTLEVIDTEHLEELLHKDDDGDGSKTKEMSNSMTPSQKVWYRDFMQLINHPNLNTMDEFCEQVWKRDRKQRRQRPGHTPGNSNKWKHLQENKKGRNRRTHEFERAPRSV

| Binder | Kd [1] | binding result [2] |
| --- | --- | --- |
| anti-hVEGF-A clone A033AM-19 (affinity-matured from A033) (antibody, V domains shown, human IgG1 heavy chain constant region (CH1, hinge, CH2, CH3); as the light chain of m7 (identical LC); human Igλ constant region (hCλ) amplified from Ramos cell cDNA; Full-length human IgG1, λ; source: DT40 cells (subclone of A033 sorted after culture without TSA), secreted human IgG, purified) VH: EVELVQSGAEVKKPGSSVKVSCKASGGTFSDYSISWVRQAPGQGLEWMGGIIPIFGTPNYAQKFQGRVTITADESTSTAYMELSSLRSEDTAVYYCADGGAYCGGDCYSGYYYYGMDVWGQGTTVTVSS VL: QSALTQPASVSGSPGQSITISCTGTSSDVGGYNLVSWYQQHPGKAPKLMIYQDNNKRPSGVSNRFSGSKSGNTASLTISGLQAEDEADYYCSYTNDSNSQVFGGGTKLTVL | 0.0491 nM |  |
| anti-hSema3A clones from the L30H45(fff) single clone-derived library (three clones with identical HC and LC sequences) (antibody, V domains shown, human IgG1 heavy chain constant region (CH1, hinge, CH2, CH3); human Igλ constant region (hCλ) amplified from Ramos cell cDNA; Full-length human IgG1, λ; source: DT40 L30H45(fff) cells treated with TSA for 86 days, selected on hSema3A-his-AP beads, limiting dilution cloning) VH: EVQLLESGGGLVQPGGSLRLSCAASGFTFSSYWMSNEMSWVRQAPGKGLEWVSSISGGSTYYADSVKGRFTISRDNSKNTLYLQMNSLRAEDTAVYYCAKGYSGYDYYFDYWGQGTLVTVSS VL: QSALTQPASVSGSPGQSITISCTGTSSDVGGYNYVSWYQQNPGKAPKLMIYDVSNRPSGISNRFSGSKSGNTASLTISGLQADDEADYYCTSYTNDSNSQVFGGGTKLTVL |  | binds |
